Laboratory results published in publication PMC2720046 (Science (New York, N.Y.), 2008).
Numbering of substitutions follows the chain as printed. Names and notes keep the numbering of the source.

Tests used:
[1] = target: T1, CEP55-EABR (residues 160−217) (Homo sapiens, UniProt Q53EZ4); test: ITC titration of peptide into CEP55-EABR solution; type: binding; conditions: compared with ALIX peptide
T1 sequence (Q53EZ4 160-217): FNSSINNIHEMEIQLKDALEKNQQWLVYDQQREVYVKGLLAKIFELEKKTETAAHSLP

[2] = tested on: CEP55-EABR; test: Analytical ultracentrifugation of CEP55-EABR to peptide mixtures; type: binding; conditions: TSG101 peptide added to preformed 2:1 CEP55:ALIX peptide complex
[3] = tested on: CEP55-EABR; type: binding; conditions: pull-down by GST-ALIX fragment with TSG101 peptide competitor
[4] = tested on: midbodies in HeLa cells; test: Midbody localization of wild-type and mutant GFP-ALIX expressed in HeLa cells; type: cell-based; conditions: full-length GFP-tagged ALIX, α−tubulin staining
[5] = target: T2, ALIX 797-809 (Homo sapiens, UniProt Q8WUM4); test: ITC
T2 chain: QAQGPPYPTYPGY

[6] = target: T3, TSG101 154-166 (Homo sapiens, UniProt Q99816); test: ITC
T3 chain: QATGPPNTSYMPG

## TSG101 peptide: related TSG101 peptide (residues 154 to 166) (QATGPPNTSYMPG; UniProt Q99816 154-166, looked up, fragment)
[1]
  affinity relative to ALIX peptide: essentially the same affinity and stoichiometry
[2]
  competition with ALIX peptide for CEP55 site: a peak corresponding to the equivalent amount of uncomplexed peptide is formed, suggesting that TSG101 and ALIX compete for the same site
[3]
  competition for CEP55-EABR binding site: the two peptides interact with the same site

B1: ALIX^Y806A: full-length ALIX mutant tagged with GFP (protein, UniProt Q8WUM4 1-868, looked up, variant Y806A)
chain: MATFISVQLKKTSEVDLAKPLVKFIQQTYPSGGEEQAQYCRAAEELSKLRRAAVGRPLDKHEGALETLLRYYDQICSIEPKFPFSENQICLTFTWKDAFDKGSLFGGSVKLALASLGYEKSCVLFNCAALASQIAAEQNLDNDEGLKIAAKHYQFASGAFLHIKETVLSALSREPTVDISPDTVGTLSLIMLAQAQEVFFLKATRDKMKDAIIAKLANQAADYFGDAFKQCQYKDTLPKEVFPVLAAKHCIMQANAEYHQSILAKQQKKFGEEIARLQHAAELIKTVASRYDEYVNVKDFSDKINRALAAAKKDNDFIYHDRVPDLKDLDPIGKATLVKSTPVNVPISQKFTDLFEKMVPVSVQQSLAAYNQRKADLVNRSIAQMREATTLANGVLASLNLPAAIEDVSGDTVPQSILTKSRSVIEQGGIQTVDQLIKELPELLQRNREILDESLRLLDEEEATDNDLRAKFKERWQRTPSNELYKPLRAEGTNFRTVLDKAVQADGQVKECYQSHRDTIVLLCKPEPELNAAIPSANPAKTMQGSEVVNVLKSLLSNLDEVKKEREGLENDLKSVNFDMTSKFLTALAQDGVINEEALSVTELDRVYGGLTTKVQESLKKQEGLLKNIQVSHQEFSKMKQSNNEANLREEVLKNLATAYDNFVELVANLKEGTKFYNELTEILVRFQNKCSDIVFARKTERDELLKDLQQSIAREPSAPSIPTPAYQSSPAGGHAPTPPTPAPRTMPPTKPQPPARPPPPVLPANRAPSATAPSPVGAGTAAPAPSQTPGSAPPPQAQGPPYPTAPGYPGYCQMPMPMGYNPYAYGQYNMPYPPVYHQSPGQAPYPGPQQPSYPFPQPPQQSYYPQQ
modifications: full-length GFP fusion
[4]
  midbody localization of GFP-ALIX: no midbody localization above background

B2: wild-type ALIX: full-length wild-type ALIX tagged with GFP (protein, UniProt Q8WUM4 1-868, looked up)
chain: B1 chain with A806Y
modifications: full-length GFP fusion
[4]
  midbody localization of GFP-ALIX: strongly localized to midbodies

B3: CEP55 160-217 (protein)
chain: T1 sequence (Q53EZ4 160-217)
[5]
  Kd: 1000 nM
[6]
  Kd: ~1000 nM
